Reference: US20250320281A1

Columns and labels:
Test in all cases: cell-based or functional assay
[1] = biological target: HIV-1 Env of isolate THRO.18 (clade B pseudovirus) (HIV-1)
[2] = biological target: HIV-1 92RW020 Env (HIV-1 92RW020)
[3] = biological target: MuLV envelope protein (control pseudovirus) (MuLV)
[4] = biological target: HIV-1 Env of isolate REJ04541 (clade B pseudovirus) (HIV-1)
[5] = biological target: HIV-1 Env of isolate CAAN (clade B pseudovirus) (HIV-1)
[6] = biological target: HIV-1 Env of isolate CAP45 (clade C pseudovirus) (HIV-1)
[7] = biological target: HIV-1 Env of isolate PVO.4 (clade B pseudovirus) (HIV-1)
[8] = biological target: HIV-1 Env of isolate ZM233 (clade C pseudovirus) (HIV-1)
[9] = biological target: HIV-1 ADA Env (HIV-1 ADA)
[10] = biological target: HIV-1 JR-FL Env E168K (HIV-1 JR-FL)
[11] = biological target: HIV-1 Env of isolate TR0.11 (clade B pseudovirus) (HIV-1)
[12] = biological target: HIV-1 Env of isolate ZM249 (clade C pseudovirus) (HIV-1)
[13] = biological target: HIV-1 Env of isolate Du172 (clade C pseudovirus) (HIV-1)
[14] = biological target: HIV-1 Env of isolate AC10 (clade B pseudovirus) (HIV-1)
[15] = biological target: HIV-1 Env of isolate DU156 (clade C pseudovirus) (HIV-1)
[16] = biological target: HIV-1 Env of isolate ZM214 (clade C pseudovirus) (HIV-1)
[17] = biological target: HIV-1 Env of isolate DU422 (clade C pseudovirus) (HIV-1)

Row | Binder | IC50 (neutralization, TZM-bl pseudovirus assay) [1] | IC50 (ug/ml), pseudovirus neutralization, TZM-bl assay [2] | IC50 (neutralization, TZM-bl pseudovirus assay) [3] | IC50 (neutralization, TZM-bl pseudovirus assay) [4] | IC50 (neutralization, TZM-bl pseudovirus assay) [5] | IC50 (neutralization, TZM-bl pseudovirus assay) [6] | IC50 (neutralization, TZM-bl pseudovirus assay) [7] | IC50 (neutralization, TZM-bl pseudovirus assay) [8] | IC50 (ug/ml), pseudovirus neutralization, TZM-bl assay [9] | IC50 (ug/ml), pseudovirus neutralization, TZM-bl assay [10] | IC50 (neutralization, TZM-bl pseudovirus assay) [11] | IC50 (neutralization, TZM-bl pseudovirus assay) [12] | IC50 (neutralization, TZM-bl pseudovirus assay) [13] | IC50 (neutralization, TZM-bl pseudovirus assay) [14] | IC50 (neutralization, TZM-bl pseudovirus assay) [15] | IC50 (neutralization, TZM-bl pseudovirus assay) [16] | IC50 (neutralization, TZM-bl pseudovirus assay) [17]
1 | 1503_H05 (PG16) (TCN-119) (antibody, V domains shown) VH: QEKLVESGGGVVQPGGSLRLSCLASGFTFHKYGMHWVRQAPGKGLEWVALISDDGMRKYHSDSMWGRVTISRDNSKNTLYLQFSSLKVEDTAMFFCAREAGGPIWHDDVKYYDFNDGYYNYHYMDVWGKGTIVTVSS VL: QSALTQPASVSGSPGQTITISCNGTRSDVGGFDSVSWYQQSPGKAPKVMVFDVSHRPSGISNRFSGSKSGNTASLTISGLHIEDEGDYFCSSLTDRSHRIFGGGTKVTVLG | 4.12 µg/mL | 0.02 µg/mL | > 25 µg/mL | 0.22 µg/mL | 13.5 µg/mL | < 0.01 µg/mL | 11 µg/mL | < 0.01 µg/mL | 0.003 µg/mL | 0.002 µg/mL | 4.3 µg/mL | < 0.01 µg/mL | < 0.01 µg/mL | < 0.01 µg/mL | < 0.01 µg/mL | > 25 µg/mL | 0.71 µg/mL
2 | 1489_I13 (PG16) (TCN-120) (antibody, V domains shown) VH: QEQLLESGGGVVQPGGSLRLSCLASGFTFHKYGMHWVRQAPGKGLEWVALISDDGMRKYHSNSMWGRVTISRDNSKNTLYLQFSSLKVEDTAMFFCAREAGGPIWHDDVKYYDFNDGYYNYHYMDVWGKGTTVTVSS VL: QSALTQPASVSGSPGQTITISCNGTSSDVGGFDSVSWYQQSPGKAPKVMVFDVSHRPSGISNRFSGSKSGNTASLTISGLHIEDEGDYFCSSLTDRSHRIFGGGTKVTVLG | 7.41 µg/mL | 0.03 µg/mL | > 25 µg/mL | 0.34 µg/mL | 24.9 µg/mL | < 0.01 µg/mL | 20.6 µg/mL | < 0.01 µg/mL | 0.008 µg/mL | 0.005 µg/mL | 10.9 µg/mL | < 0.01 µg/mL | < 0.01 µg/mL | < 0.01 µg/mL | < 0.01 µg/mL | > 25 µg/mL | 1.87 µg/mL
3 | 1469_M23 (PG16) (TCN-118) (antibody, V domains shown) VH: QEKLVESGGGVVQPGGSLRLSCLASGFTFHKYGMHWVRQAPGKGLEWVALISDDGMRKYHSDSMWGRVTISRDNSKNTLYLQFSSLKVEDTAMFFCAREAGGPIWHDDVKYYDFNDGYYNYHYMDVWGKGTTVTVSS VL: QSALTQPASVSGSPGQTITISCNGTRSDVGGFDSVSWYQQSPGRAPKVMVFDVSHRPSGISNRFSGSKSGNTASLTISGLHIEDEGDYFCSSLTDRSHRIFGGGTKLTVLG | 7.01 µg/mL | 0.05 µg/mL | > 25 µg/mL | 0.39 µg/mL | 17.7 µg/mL | < 0.01 µg/mL | 21.2 µg/mL | < 0.01 µg/mL | 0.005 µg/mL | 0.005 µg/mL | 7.52 µg/mL | < 0.01 µg/mL | < 0.01 µg/mL | < 0.01 µg/mL | < 0.01 µg/mL | > 25 µg/mL | 0.97 µg/mL
4 | 1456_A12 (PG16) (TCN-117) (antibody, V domains shown) VH: HEQLVEAGGGVVQPGGSLRLSCLASGFTFHKYGMHWVRQAPGKGLEWVALISDDGMRKYHSDSMWGRVTISRDNSKNTLYLQFSSLRVEDTAMFFCAREAGGPIWHDDVKYYDFNDGYYNYHYMDVWGKGTKVTVSS VL: QSALTQPASVSGSPGQTITISCNGTSRDVGGFDSVSWYQQSPGKAPKVMVFDVSHRPSGMSNRFSGSKSGNTASLTISGLHIEDEGDYFCSSLTDRSHRIFGGGTKLTVLG | 2.08 µg/mL | 0.05 µg/mL | > 25 µg/mL | < 0.01 µg/mL | 10.6 µg/mL | < 0.01 µg/mL | 10.4 µg/mL | < 0.01 µg/mL | 0.005 µg/mL | 0.003 µg/mL | 3.05 µg/mL | < 0.01 µg/mL | < 0.01 µg/mL | < 0.01 µg/mL | < 0.01 µg/mL | > 25 µg/mL | 0.36 µg/mL
